Laboratory results: US20050201975A1 (published 2005)

T1: GAL4AD protein (UniProt P04386 768-881)
T1 construct: domain: GAL4AD
T1 sequence (looked up): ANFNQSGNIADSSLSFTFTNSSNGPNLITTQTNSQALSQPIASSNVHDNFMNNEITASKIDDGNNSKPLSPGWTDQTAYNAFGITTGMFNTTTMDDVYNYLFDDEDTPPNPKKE

B1: GAL4AD fusion protein encoded by plasmid 8-7 (splice variant of the human homologue of mouse C2PA) (other, not shown: small tags and cut ends)
chain: GRATQGAHARLTGPVRAPAAGGELGFHGAAAEAGPAAMNRFNGLCKVCSERRYRQITIPRGKDGFGFTICCDSPVRVQAVDSGGPAERAGLQQLDTVLQLNERPVEHWKCVELAHEIRSCPSEIILLVWRMVPQVKPGPDGGVLRRASCKSTHDLQSPPNKREKNCTHGVQARPEQRHSCHLVCDSSDGLLLGGWERYTEVAKRGGQHTLPALSRATAPTDPNYIILAPLNPGSQLLRPVYQEDTIPEESGSPSKGKSYTGLGKKSRLMKTVQTMKGHGNYQNCPVVRPHATHSSYGTYVTLAPKVLVFPVFVQPLDLCNPARTLLLSEELLLYEGRNKAAEVTLFAYSDLLLFTKEDEPGRCDVLRNPLYLQSVKLQEGSSEDLKFCVLYLAEKAECLFTLEAHSQEQKKRVCWCLSENIAKQQQLAASPPDSKKLHPFGSLQQEMGPVNSTNATQDRSFTSPGQTLIG
notes: Prey from a human spleen cDNA library (Clontech); also called colony 8-7
B2: GAL4BD-N1 fragment (1762-1829) fusion protein (other)
chain: MKLLSSIEQACDICRLKKLKCSKEKPKCAKCLKNNWECRYSPKTKRSPLTRAHLTEVESRLERLEQLFLLIFPREDLDMILKMDSLQDIKALLTGLFVQDNVNKDAVTDRLASVETDMPLTLRQHRISATSSSEESSNKGQRQLTVSPEFRRQHGQLWFPEGFKVSEASKKKRREPLGEDSVGLKPLKNASDGALMDDNQNEWGDEDLETKKFRFEDPSTCSQANSGRISYDL
notes: Expressed in yeast strain AH109 from pLOR67 (yeast two-hybrid bait); Notch1 numbering per AAG33848; also called bait protein

Tests used:
GAL4BD alone = target: T2, GAL4BD alone (UniProt P04386 1-147); test: yeast two-hybrid (HIS3, ADE2, LacZ reporters) in AH109
T2 construct: domain: GAL4BD; Three empty GAL4BD expression constructs were used as controls; also called pBD-GAL4cam; pBRIDGE
Excerpt: AH109pLOR67 and AH109 transformed with GAL4BD expression constructs pBD-GAL4cam (Stratagene), pBRIDGE (Clontech) and pLOR32 were used to assess whether the GAL4AD fusion proteins encoded by plasmids 8-2 and 8-7 interacted in a repeatable and specific manner with the Notch1(₁₇₆₂₋₁₈₂₉) domain of the GAL4BDN1(₁₇₆₂₋₁₈₂₉) fusion protein.
These yeast stains along with AH109pLOR67 were then transformed with either 8-2 (CBF 1 fragment) or 8-7 and plated on —WL, —WLH, —WLHA, —WLHAXαGAL plates. An alternative to XaGAL was also employed to assess LacZ expression. Yeast colonies grown on —WLHA plates, were transferred to filter paper by placing the appropriately sized piece of 3 mm Whatman paper over the screen plate and pressing down firmly over the whole surface of the plate. The orientation of the paper was then marked and the paper lifted with a jerking action, lifting the colonies from the agar. The yeast colonies were permeabilised by placing the filter papers in liquid nitrogen, and then allowing them to thaw. This cycle was repeated three times in total. 1.8 ml Z buffer containing X-gal was added to each filter paper, the papers were then monitored for the next 6 hours for the production of blue colour.

GAL4AD protein = target: T1, GAL4AD protein; test: yeast two-hybrid bait specificity check in AH109pLOR67

Binder	binding result (GAL4BD alone)	binding result (GAL4AD protein)
B1	no binding	–
B2	–	no binding
